Laboratory results reported in paper PMC7948472, “Structural basis for antigen recognition by methylated lysine–specific antibodies” (The Journal of Biological Chemistry, 2020).

T1: MAP3K2 peptide, NPIFEKFGKGGTYP (Homo sapiens)
T1 construct: MAP3K2 peptide surrounding Lys260, not methylated; also called non-methylated peptide; nonmethylated peptide; source: synthetic peptide (SCRUM Inc)
T1 chain: NPIFEKFGKGGTYP


Target: T1, MAP3K2 peptide, NPIFEKFGKGGTYP
Assay: SPR; Biacore T200; each Fab immobilised on a CM5 chip by amine coupling; peptides injected at increasing concentrations; running buffer PBS with 0.005% Tween 20; global fitting of the curves, or steady-state analysis where kinetic parameters could not be determined (fast dissociation, low affinity)
Conditions: both partners purified

Kd | koff | kon | Binder
4 µM | 0.33 ± 0.04 s⁻¹ | 86000 M⁻¹ s⁻¹ | Fab F9 (Fab, V domains shown, heavy chain of rabbit Fab clone F9; they are in PDB 6LDV chain H; light chain of rabbit Fab clone F9; they are in PDB 6LDV chain L; Purified on Ni-NTA, so a His tag is surmised; source: Expi293 cells, cotransfected, purified from supernatant (Ni-NTA, SEC)) VH: QSVEESGGRLVTPGTPLTLTCTVSGFSLNSNAISWVRQAPGEGLEWVGAIYTHGSTVYANWAKGRFTISKTSTTIELKMTSLTTEDTATYFCARHGYTYSFNLWGPGTLVTVSS VL: AQGLTQTPSPVSAALGGTVTINCQSSQSVYGNNRLAWYQQKPGQPPKRLIYQASTLDSGVPSRFSGSGSGTQFTLTISGVQCDDAATYYCQGGYSSGDAWAFGGGTEVVVK
0.35 µM | 0.18 ± 0.01 s⁻¹ | 500000 M⁻¹ s⁻¹ | Fab E6 (Fab, V domains shown, heavy chain of rabbit Fab clone E6; they are in PDB 6LDX chain H; light chain of rabbit Fab clone E6; they are in PDB 6LDX chain L; Purified on Ni-NTA, so a His tag is surmised; source: Expi293 cells, cotransfected, purified from supernatant (Ni-NTA, SEC)) VH: DQSLEESGGRLVTPGTPLTLTCTVSGFSLNNNAMGWFRQAPGEGLEWIGAIYTDGSTYYASWAKGRFTISKTSTTIDLKMTSLTTEDTATYFCARHGYTYSFNLWGPGTLVTVSS VL: DPVMTQTPPSVSAAVGGTVTISCQSSQSVYNNDNLAWYQQKPGQPPKRLIYGASTLDSGVPSRFKGSGSGTQFTLTISGVECDDAATYYCQGAYNVDIYPFGGGTEVVVK
